Assay results published in paper PMC6894070, “The Plasmodium falciparum Hsp70-x chaperone assists the heat stress response of the malaria parasite” (The FASEB Journal, 2019).

Target: Plasmodium falciparum Hsp70-x (PfHsp70-x), full-length construct aa 25-679 (P. falciparum) (UniProt K7NTP5)

Substance: J-domain of P. falciparum Hsp40 cochaperone PFE0055c (PFE0055cJ), aa 77-148 (domain or fragment)
- apparent dissociation constant from titrating the cochaperone in ATP hydrolysis assays (5 μM chaperone, single-site binding fit): 3 µM
